Laboratory results reported in patent US20030092616A1, “STAT6 activation gene” (priority 2001, published 2003).

The molecules below were run on STAT6 (assay: Screening of full-length cDNA clones for promotion of STAT6 activation (luciferase reporter N4×8-luc)). Details: NIH3T3 cells cotransfected with N4×8-luc reporter and cDNA plasmid; 48 h culture, then mouse IL-4 0.5 ng/ml for 6 h.
Format: cell-based
Description: As a preferable method, NIH3T3 cells are inoculated on 10% FBS (Fetal Bovine Serum)-containing IMDM medium in a 96-well cell culture plate to a final cell density of 1×10^4 cells/well, and cultured for 24 hours at 37° C., in the presence of 5% CO2. Then, the luciferase reporter plasmid N4×8-luc which has a STAT6 response sequence, and the expression vector are cotransfected into the cells in a well using FuGENE 6 (Roche). After 48 hours of culture at 37° C., in the presence of 5% CO2 mouse IL-4 (Immuno Biological Laboratories Co., Ltd.) is added to a final concentration of 0.5 ng/ml. After culturing for further 6 hours, promoting activity for STAT6 activation is then measured by measuring luciferase activity using a long term luciferase assay system, Picagene LT2.0 (Toyo Ink Mfg). For example, luciferase activity can be measured using PerkinElmer's Wallac ARVOTMST 1420 MULTILABEL COUNTER. The method for gene introduction by FuGENE6, and measurement of luciferase activity by Picagene LT2.0 can be performed respectively according to the attached protocols. In a method of gene introduction with a 96-well plate using FuGENE6, the amount of FuGENE6 per 1 well is suitably 0.3 to 0.5 μl, preferably 0.3 μl; the amount of N4×8-luc reporter plasmid is suitably 50 to 100 ng, preferably 100 ng; and the amount of expression vector is suitably 50 to 100 ng, preferably 100 ng. An ability (action) to promote STAT6 activation refers to an ability to increase the reporter activity (luciferase activity) relative to the control experiment (for cells into which the reporter gene and a null vector were introduced). Increase in reporter activity is preferably by a factor of 1.5 or more, more preferably by a factor of 3 or more, and still more preferably by a factor of 6 or more.
NIH3T3 cells (purchased from Dainippon Pharmaceutical) were grown to 1×10^4 cells/well in a 96 well plate for cell culture for 24 hours at 37° C. (in the presence of 5% CO2) using 10% FBS containing IMDM medium. Then, 100 ng of luciferase reporter plasmid N4×8-luc having a STAT6 response sequence and 2 μl of the full-length cDNA prepared in above Example 1.(3) were cotransfected into the cells in a well using FuGENE 6 (purchased from Roche) according to the manufacturer's protocol. The luciferase reporter plasmid N4×8-luc having the STAT6 response sequence was constructed as follows. […] 157, 2058-2065 (1996)], oligonucleotides having the following sequences were synthesized:
The synthesized oligonucleotides were dissolved in sterile water to be 1μg/μl, respectively, mixed in 10 μl lots, and adjusted the volume to 32 μl with sterile water. The solution was heated for 5 min at 90° C., and gradually cooled down to room temperature to prepare a double-stranded oligonucleotide solution. The solution was reacted with T4 polynucleotide kinase (Takara Shuzo) according to the attached manual, then the reaction product was purified in a usual manner. Separately, SV40 promoter region of pGL3-Promoter vector (Promega) was replaced by the HSV thymidine kinase promoter sequence (from −50 to +10) with Hind III site and BglII site to construct a vector tk-luc. The aforesaid double-stranded oligonucleotide fragments were inserted into the XhoI site of this tk-luc vector using T4 DNA ligase (GIBCO/BRL). The obtained clones were sequenced according to a usual method, and clones in which plural oligonucleotide fragments were inserted were selected. […] The four-interlinked DNA fragments were excised from the N4×4-luc with a XhoI and a BglII site and purified to be inserted into a BamHI and a XhoI site of pBluescript II KS+ (Stratagene). The four-interlinked DNA fragments were excised from this plasmid with KpnI and SpeI and inserted into a KpnI and a NheI site of N4×4-luc plasmid to finally obtain N4×8-luc.

Row | Molecule | Activity = (luciferase activity of the gene of each SEQ ID NO:)/(luciferase activity of pME18S-FL3)
1 | 26 (nucleic acid, listed as Homo sapiens, CDS (40)..(348)) AGCCAAGGAGCAATAACTGAACGTTTAAGAAGCTTCAGTATGCATGATTTAACAACTATCCAAGGTGATGAGCCTGTGGGACAAAGACCATACCAACCTCTACCAGAAGCAAAAAAGAAAAGTAAACCAGCCCCCAGTGAATCAGCAGGTTATGGAATTCCACTGAAAGACGGAGATGAGAAAACAGATGAAGAAGCAGAGGGGCCATATTCAGATAATGAGATGTTAACACACAAAGGGCTTCGAAGATCGCAAAGCATGAAATCTGTGAAAACCACCAAAGGCCGCAAAGAGGTGCGGTACGGGTCACTAAAATACAAAGTGAAGAAACGACCACAAGTGTATTTTTAGTCATCTACACGTCAAATATCCCAAGACAGATTATGCTAAATACATCGACTTCATCTTCTAACATGATATATTCAGGATTTACACATTAAAATGATTATTT | 33.5
2 | 237 (nucleic acid, listed as Homo sapiens, CDS (66)..(911)) TGCGCGTGCGCAGGGATAAGAGAGCGGTCTGGACAGCGCGTGGCCGGCGCCGCTGTGGGGACAGCATGAGCGGCGGTTGGATGGCGCAGGTTGGAGCGTGGCGAACAGGGGCTCTGGGCCTGGCGCTGCTGCTGCTGCTCGGCCTCGGACTAGGCCTGGAGGCCGCCGCGAGCCCGCTTTCCACCCCGACCTCTGCCCAGGCCGCAGGCCCCAGCTCAGGCTCGTGCCCACCCACCAAGTTCCAGTGCCGCACCAGTGGCTTATGCGTGCCCCTCACCTGGCGCTGCGACAGGGACTTGGACTGCAGCGATGGCAGCGATGAGGAGGAGTGCAGGATTGAGCCATGTACCCAGAAAGGGCAATGCCCACCGCCCCCTGGCCTCCCCTGCCCCTGCACCGGCGTCAGTGACTGCTCTGGGGGAACTGACAAGAAACTGCGCAACTGCAGCCGCCTGGCCTGCCTAGCAGGCGAGCTCCGTTGCACGCTGAGCGATGACTGCATTCCACTCACGTGGCGCTGCGACGGCCACCCAGACTGTCCCGACTCCAGCGACGAGCTCGGCTGTGGAACCAATGAGATCCTCCCGGAAGGGGATGCCACAACCATGGGGCCCCCTGTGACCCTGGAGAGTGTCACCTCTCTCAGGAATGCCACAACCATGGGGCCCCCTGTGACCCTGGAGAGTGTCCCCTCTGTCGGGAATGCCACATCCTCCTCTGCCGGAGACCAGTCTGGAAGCCCAACTGCCTATGGGGTTATTGCAGCTGCTGCGGTGCTCAGTGCAAGCCTGGTCACCGCCACCCTCCTCCTTTTGTCCTGGCTCCGAGCCCAGGAGCGCCTCCGCCCACTGGGGTTACTGGTGGCCATGAAGGAGTCCCTGCTGCTGTCAGAACAGAAGACCTCGCTGCCCTGAGGACAAGCACTTGCCACCACCGTCACTCAGCCCTGGGCGTAGCCGGACAGGAGGAGAGCAGTGATGCGGATGGGTACCCGGGCACACCAGCCCTCAGAGACCTGAGCTCTTCTGGCCACGTGGAACCTCGAACCCGAGCTCCTGCAGAAGTGGCCCTGGAGATTGAGGGTCCCTGGACACTCCCTATGGAGATCCGGGGAGCTAGGATGGGGAACCTGCCACAGCCAGAACTGAGGGGCTGGCCCCAGGCAGCTCCCAGGGGGTAGAACGGCCCTGTGCTTAAGACACTCCTGCTGCCCCGTCTGAGGGTGGCGATTAAAGTTGCT | 105.1
3 | 219 (nucleic acid, listed as Homo sapiens, CDS (398)..(928)) GTATACCACAGACCAAAGCACCTTTGACATTTTGCAGGATTTGGAGTTTTCTTCTGGGTCCCCAGGTAAAGAGACGAATGAGAGTCCTTGGAGATCAGACCTGTTGATAGATGAAAACTGTTTGCTTTCTCCTCTGGCGGGAGAAGACGATTCATTCCTTTTGGAAGGAAACTCGAATGAGGACTGCAAGCCTCTCATTTTACCGGACACTAAACCCAAAATTAAGGATAATGGAGATCTGGTTTTGTCAAGCCCCAGTAATGTAACACTGCCCCAAGTGAAAACAGAAAAAGAAGATTTCATCGAACTCTGCACCCCTGGGGTAATTAAGCAAGAGAAACTGGGCACAGTTTACTGTCAGGCAAGCTTTCCTGGAGCAAATATAATTGGTAATAAAATGTCTGCCATTTCTGTTCATGGTGTGAGTACCTCTGGAGGACAGATGTACCACTATGACATGAATACAGCATCCCTTTCTCAACAGCAGGATCAGAAGCCTATTTTTAATGTCATTCCACCAATTCCCGTTGGTTCCGAAAATTGGAATAGGTGCCAAGGATCTGGAGATGACAACTTGACTTCTCTGGGGACTCTGAACTTCCCTGGTCGAACAGTTTTTTCTAATGGCTATTCAAGCCCCAGCATGAGACCAGATGTAAGCTCTCCTCCATCCAGCTCCTCAACAGCAACAACAGGACCACCTCCCAAACTCTGCCTGGTGTGCTCTGATGAAGCTTCAGGATGTCATTATGGAGTCTTAACTTGTGGAAGCTGTAAAGTTTTCTTCAAAAGAGCAGTGGAAGGACAGCACAATTACCTATGTGCTGGAAGGAATGATTGCATCATCGATAAAATTCGAAGAAAAAACTGCCCAGCATGCCGCTATCGAAAATGTCTTCAGGCTGGAATGAACCTGGAAGCTCGAAAAAC | 12.7
4 | 217 (nucleic acid, listed as Homo sapiens, CDS (47)..(1261)) AAGCAATGCGCAGCAGCCAGATCTGTCCAAAGCAGTTTCACTCTCAATGGGACTGTATATGGGAGAGACAGAAACAAAAGTGATGGGAAATGACCTGGGATTCCCACAGCAGGGCCAAATCAGCCTTTCCTCGGGGGAAACAGACTTAAAGCTTTTGGAAGAAAGCATTGCAAACCTCAATAGGTCGACCAGTGTTCCAGAGAACCCCAAGAGTTCAGCATCCACTGCTGTGTCTGCTGCCCCCACAGAGAAGGAGTTTCCAAAAACTCACTCTGATGTATCTTCAGAACAGCAACATTTGAAGGGCCAGACTGGCACCAACGGTGGCAATGTGAAATTGTATACCACAGACCAAAGCACCTTTGACATTTTGCAGGATTTGGAGTTTTCTTCTGGGTCCCCAGGTAAAGAGACGAATGAGAGTCCTTGGAGATCAGACCTGTTGATAGATGAAAACTGTTTGCTTTCTCCTCTGGCGGGAGAAGACGATTCATTCCTTTTGGAAGGAAACTCGAATGAGGACTGCAAGCCTCTCATTTTACCGGACACTAAACCCAAAATTAAGGATAATGGAGATCTGGTTTTGTCAAGCCCCAGTAATGTAACACTGCCCCAAGTGAAAACAGAAAAAGAAGATTTCATCGAACTCTGCACCCCTGGGGTAATTAAGCAAGAGAAACTGGGCACAGTTTACTGTCAGGCAAGCTTTCCTGGAGCAAATATAATTGGTAATAAAATGTCTGCCATTTCTGTTCATGGTGTGAGTACCTCTGGAGGACAGATGTACCACTATGACATGAATACAGCATCCCTTTCTCAACAGCAGGATCAGAAGCCTATTTTTAATGTCATTCCACCAATTCCCGTTGGTTCCGAAAATTGGAATAGGTGCCAAGGATCTGGAGATGACAACTTGACTTCTCTGGGGACTCTGAACTTCCCTGGTCGAACAGTTTTTTCTAATGGCTATTCAAGCCCCAGCATGAGACCAGATGTAAGCCCTCCTCCATCCAGCTCCTCAACAGCAACAACAGGACCACCTCCCAAACTCTGCCTGGTGTGCTCTGATGAAGCTTCAGGATGTTATTATGGAGTCTTAACTTGTGGAAGCTGTAAAGTTTTCTTCAAAAGAGCAGTGGAAGGACAGCACAATTACCTATGTGCTGGAAGGAATGATTGCATCATCGATAAAATTCGAAGAAAAAACTGCCCAGCATGCCGCTATCGAAAATGTCTTCAGGCTGGAATGAACCTGGAAGCTCG | 1521.5
